# Assay results published in patent US20230220115A1.
# Values joined by “and” are separate entries in the source; they are usually repeats but may differ in a detail not shown here. Identical values can stand only once.
# Key:
# [1] = biological target: SARS-CoV-2 spike, South African Δ3 B.1.351 variant (pseudovirus RVP-724) (SARS-CoV-2) (UniProt P0DTC2); test: cell-based or functional assay
# [2] = biological target: SARS-CoV-2 spike, N439K variant (pseudovirus RVP-703) (SARS-CoV-2) (UniProt P0DTC2); test: cell-based or functional assay
substance,measurement,setting,value
Imdevimab (biosimilar version) (antibody),"EC50 (pM) Neutralization, South Africa B.1.351",[1],2.48 pM and 2.37 pM
same,"EC50 (pM) Neutralization, N439K",[2],2260 pM and 2220 pM
same,potency in pseudovirus neutralization against REGN10933,[2],1000 fold
